According to article doi:10.1101/2025.05.08.652848 (bioRxiv, 2025):
*: point of attachment. Biotin = O=C1N[C@H]2[C@H](CS[C@H]2CCCCC(=O)*)N1

Assays:
[1] = target: His-PPARG LBD (human PPARG ligand-binding domain, residues 231 to 505), wild type (human) (UniProt P37231); assay: AlphaScreen or HTRF
[2] = target: N-terminal Avi-tagged PPARG LBD, FTX-6746-modified (human); assay: SPR
[3] = target: N-terminal Avi-tagged PPARG LBD, unmodified (DMSO) (human); assay: SPR
[4] = target: T1, RXRA^WT:PPARG LBD heterodimer (human, UniProt P37231;P19793); assay: AlphaScreen or HTRF
T1 sequence 1: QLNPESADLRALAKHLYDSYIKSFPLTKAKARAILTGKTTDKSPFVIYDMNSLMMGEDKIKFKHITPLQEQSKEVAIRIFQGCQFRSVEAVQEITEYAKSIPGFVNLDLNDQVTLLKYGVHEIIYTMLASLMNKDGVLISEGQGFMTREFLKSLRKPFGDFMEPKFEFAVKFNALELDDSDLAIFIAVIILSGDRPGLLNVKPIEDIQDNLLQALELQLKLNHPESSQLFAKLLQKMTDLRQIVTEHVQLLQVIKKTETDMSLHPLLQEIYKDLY
T1 sequence 2: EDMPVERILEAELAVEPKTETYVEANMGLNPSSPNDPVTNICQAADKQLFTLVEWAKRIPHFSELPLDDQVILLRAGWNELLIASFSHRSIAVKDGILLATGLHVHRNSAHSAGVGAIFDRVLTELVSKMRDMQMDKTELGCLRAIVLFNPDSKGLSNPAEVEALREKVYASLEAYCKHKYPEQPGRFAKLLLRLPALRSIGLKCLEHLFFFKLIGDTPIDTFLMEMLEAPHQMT

With biotinylated MED1 LxxLL peptide the Kd [1] was > 2500 nM.

B1: biotinylated MED1 LxxLL peptide (peptide)
peptide: Biotin-VSSMAGNTKNHPMLMNLLKDNPAQ-NH2
SMILES: CSCC[C@H](NC(=O)[C@H](CO)NC(=O)[C@H](CO)NC(=O)[C@@H](NC(=O)CCCC[C@@H]1SC[C@@H]2NC(=O)N[C@@H]21)C(C)C)C(=O)N[C@@H](C)C(=O)NCC(=O)N[C@@H](CC(N)=O)C(=O)N[C@H](C(=O)N[C@@H](CCCCN)C(=O)N[C@@H](CC(N)=O)C(=O)N[C@@H](Cc1c[nH]cn1)C(=O)N1CCC[C@H]1C(=O)N[C@@H](CCSC)C(=O)N[C@@H](CC(C)C)C(=O)N[C@@H](CCSC)C(=O)N[C@@H](CC(N)=O)C(=O)N[C@@H](CC(C)C)C(=O)N[C@@H](CC(C)C)C(=O)N[C@@H](CCCCN)C(=O)N[C@@H](CC(=O)O)C(=O)N[C@@H](CC(N)=O)C(=O)N1CCC[C@H]1C(=O)N[C@@H](C)C(=O)N[C@@H](CCC(N)=O)C(N)=O)[C@@H](C)O
Molecule B1 has a fraction of PPARG capable of binding CoA [2] of 34%, a fraction of PPARG capable of binding CoA [3] of 82% and a Kd [4] of 270 nM. B1: binds [4].

B2: biotinylated NCOR1 ID2 peptide (peptide)
peptide: Biotin-GHSFADPASNLGLEDIIRKALMG-NH2
SMILES: CC[C@H](C)[C@H](NC(=O)[C@H](CC(=O)O)NC(=O)[C@H](CCC(=O)O)NC(=O)[C@H](CC(C)C)NC(=O)CNC(=O)[C@H](CC(C)C)NC(=O)[C@H](CC(N)=O)NC(=O)[C@H](CO)NC(=O)[C@H](C)NC(=O)[C@@H]1CCCN1C(=O)[C@H](CC(=O)O)NC(=O)[C@H](C)NC(=O)[C@H](Cc1ccccc1)NC(=O)[C@H](CO)NC(=O)[C@H](Cc1c[nH]cn1)NC(=O)CNC(=O)CCCC[C@@H]1SC[C@@H]2NC(=O)N[C@@H]21)C(=O)N[C@H](C(=O)N[C@@H](CCCNC(=N)N)C(=O)N[C@@H](CCCCN)C(=O)N[C@@H](C)C(=O)N[C@@H](CC(C)C)C(=O)N[C@@H](CCSC)C(=O)NCC(N)=O)[C@@H](C)CC
B2: binds [4].
